Results as given in patent publication US20150293026A1, “Automated system for tissue histomorphometry” (priority 2010, published 2015).

Tested on: mineralizing bone surface and GFP labeled osteoblast surface of long bones (femur)
Experiment: Automated bone histomorphometry of femur trabecula in PTH treated GFP reporter mice
Assay type: in vivo
Details: for AC measurements CL (common surface area of GFP marked osteoblast and AC stained label/bone surface area) / AC measurements NCL (surface area of AC stained label only/bone surface area) / AC measurements TL (total AC stained label area/bone surface area) / GFP measurements CL / GFP measurements NCL / GFP measurements TL: femur trabecula, day 7, mean
Method: The combination of image analysis techniques (registration, segmentation, smoothing and thresh-holding) is amenable to automating histomorphometry analysis. We have used long bones (femur) of PTH treated, skeletally mature mice (8˜9 month old) whose transgenic expression of Col3.6GFP or Col2.3GFP is expected to be uniformly low. Each study had 2 groups of treatment experiments, one that is PTH treated and one that is vehicle (0.001 N HCl containing 1 mg/ml BSA) treated. Each treated study was terminated 1 day after 2 days, 3 days, and 7 days dose of treatment has been administered. A single red fluorochrome label (AC, alizarin complexone, 30 mg/Kg IP) has been administered concurrently with the final PTH dose approximately 24 hours prior to end of each study. The experimental quantification includes GFP labeled osteoblast surface, mineralizing bone surface and total bone surface.
We need to measure both the AC stained label areas and GFP marked osteoblast areas that are commonly related to the same bone surface region. Often, the distance between the AC stained labels and the GFP marked osteoblast are not uniform, and sometimes they may be located far away. Our approach is to find the reference bone surfaces first, and then move the related AC stained labels and GFP marked osteoblast onto the reference bone surfaces using morphological transformation. FIG. 7(b) is the transformed image of FIG. 7(a). The red and green colors show, respectively, the AC stained labels and the GFP marked osteoblast on the bone surface. The yellow color is introduced to represent the common areas of AC stained labels and GFP marked osteoblast. From this projected image, we are able to calculate the ratios of the AC stained labels and GFP marked osteoblast of interest.
Here PTH treated and vehicle treated studies use poBCol3.6GFP-Tpz and pOBCol2.3GFP-Emd, respectively, where the former is control and the latter is test. The measurement follows the bone volume measurement guideline presented in [Parfitt et al., 1987]. In Table 3, the following notations are used and each measurement is the percentage of 2D perimeter measurement over the total 2D bone surface area (Red=AC measurements, Cyan=GFP measurements).
TL=total AC stained label area/bone surface area; CL=common surface area of the GFP marked osteoblast and AC stained label/bone surface area; NCL=surface area of the AC stained label only/bone surface area; TG=total surface area of the green GFP marked osteoblast/bone surface area; GL=common surface area of the GFP marked osteoblast and AC stained label/bone surface area; NGL=surface area of the GFP marked osteoblast only/bone surface area.

B1: PTH: PTH given to skeletally mature transgenic GFP reporter mice for 2, 3 or 7 days; anticipated bone-forming effect (peptide, UniProt P01270 32-115, looked up)
Parathyroid hormone: SVSEIQLMHNLGKHLNSMERVEWLRKKLQDVHNFVALGAPLAPRDAGSQRPRKKEDNVLVESHEKSLGEADKADVNVLTKAKSQ
modifications: Parathyroid hormone
AC measurements CL (common surface area of GFP marked osteoblast and AC stained label/bone surface area) (Col 2.3-Emd mice): 3.82% | AC measurements NCL (surface area of AC stained label only/bone surface area) (Col 2.3-Emd mice): 12.65% | AC measurements TL (total AC stained label area/bone surface area) (Col 2.3-Emd mice): 16.48% | GFP measurements CL (Col 2.3-Emd mice): 3.82% | GFP measurements NCL (Col 2.3-Emd mice): 8.00% | GFP measurements TL (Col 2.3-Emd mice): 11.83% | AC measurements CL (common surface area of GFP marked osteoblast and AC stained label/bone surface area) (Col 3.6-Tpz mice): 5.47% | AC measurements NCL (surface area of AC stained label only/bone surface area) (Col 3.6-Tpz mice): 25.48% | AC measurements TL (total AC stained label area/bone surface area) (Col 3.6-Tpz mice): 31.23% | GFP measurements CL (Col 3.6-Tpz mice): 5.74% | GFP measurements NCL (Col 3.6-Tpz mice): 4.24% | GFP measurements TL (Col 3.6-Tpz mice): 9.99% | calcified bone areas (TL), PTH treated case compared with vehicle treated case (day 7, in words): more calcified bone areas (TL) | number of GFP marked osteoblast (TG), PTH treated case compared with vehicle treated case (day 7, in words): more
